From the supplement of paper PMC7125110
± gives the standard error. For some of these results: Fewer inactive variants are shown than the library holds.

B1: glmS ribozyme (parent)
chain: AUAAAAGCGCCAGAACUACAGAAAUGUAGUUGACGAGGAGGAGGUUUAUCGAAUUUUCGGCGGAUGCCUCCAAA

Assays:
Settings in all cases: with glucosamine-6-phosphate
glucosamine-6-phosphate [1] = variants of: B1; test: kcat; higher = faster cleavage; RNA array
Procedure, shortened: (§1)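 The measurements used barcoded ribozyme variants on sequenced MiSeq chips, transcribed in situ by E. coli RNA polymerase and tracked at 37 °C with a hybridised Cy3 probe. Glucosamine-6-phosphate, 40 μM to 10 mM in HEPES/KCl/Mg(OAc)2 buffer, was flowed in while tiles were imaged over ~14 h. Baseline-normalised signals, also normalised to non-cleaving reference variants, gave per-tile medians that were fit to one- or two-exponential decays for kobs. kcat and KM resulted from weighted Michaelis–Menten fits across concentrations.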

glucosamine-6-phosphate [2] = variants of: B1; test: self-cleavage kobs at 40 uM GlcN6P; higher = faster cleavage; RNA array
Procedure, shortened: as §1

glucosamine-6-phosphate [3] = variants of: B1; test: self-cleavage kobs at 640 uM GlcN6P; higher = faster cleavage; RNA array
Procedure, shortened: as §1

glucosamine-6-phosphate [4] = variants of: B1; test: self-cleavage kobs at 2500 uM GlcN6P; higher = faster cleavage; RNA array
Procedure, shortened: as §1

glucosamine-6-phosphate [5] = variants of: B1; test: self-cleavage kobs at 10000 uM GlcN6P; higher = faster cleavage; RNA array
Procedure, shortened: as §1

glucosamine-6-phosphate [6] = variants of: B1; test: self-cleavage kobs at 160 uM GlcN6P; higher = faster cleavage; RNA array
Procedure, shortened: as §1

glucosamine-6-phosphate [7] = variants of: B1; test: KM; higher = weaker cofactor use; RNA array
Procedure, shortened: as §1

Variant | kcat (glucosamine-6-phosphate [1]) [s⁻¹] | self-cleavage kobs at 40 uM GlcN6P (glucosamine-6-phosphate [2]) [s⁻¹] | self-cleavage kobs at 640 uM GlcN6P (glucosamine-6-phosphate [3]) [s⁻¹] | self-cleavage kobs at 2500 uM GlcN6P (glucosamine-6-phosphate [4]) [s⁻¹] | self-cleavage kobs at 10000 uM GlcN6P (glucosamine-6-phosphate [5]) [s⁻¹] | self-cleavage kobs at 160 uM GlcN6P (glucosamine-6-phosphate [6]) [s⁻¹] | KM (glucosamine-6-phosphate [7]) [µM]
A36U C67G C68G C71U | 6.17e-05 ± 1.7e-05 | 4.88e-05 ± 1.9e-05 | 0.000121 ± 3e-05 | 5.55e-05 ± 1.8e-05 | 5.06e-05 ± 1.6e-05 | – | –
A12U A15C | 0.00683 ± 0.003 | 0.000955 ± 0.00021 | 0.0109 ± 0.0048 | 0.00385 ± 0.0017 | 0.0117 ± 0.0029 | – | –
U49C C67G | < 1e-05 | < 1e-05 | – | – | < 1e-05 | < 1e-05 | –
C16U G59U | 4.21e-05 ± 7.7e-06 | – | – | 4.99e-05 ± 1.2e-05 | 3.73e-05 ± 7.2e-06 | – | –
C10U C67A | 1.13e-05 ± 2.7e-06 | – | – | – | – | – | –
G29A G38C | < 1e-05 | – | – | – | < 1e-05 | – | –
A6G C71U | 6.03e-05 ± 2.1e-06 | – | – | 3.33e-05 ± 8e-06 | 5.1e-05 ± 6.3e-06 | – | 1890 ± 260
A12C U31G | 0.00416 ± 0.00048 | 8.48e-05 ± 1.8e-05 | 0.00081 ± 0.00015 | 0.00237 ± 0.00075 | 0.00339 ± 0.00051 | 0.000245 ± 7.1e-05 | 2340 ± 410
G40C U47C | 0.000914 ± 0.0001 | – | 0.000201 ± 4.4e-05 | 0.000591 ± 0.00016 | 0.000741 ± 0.00015 | 7.4e-05 ± 2e-05 | 2020 ± 360
A42G G44C U56A C70U | < 1e-05 | – | – | < 1e-05 | – | < 1e-05 | –
C61A U65A | < 1e-05 | – | – | < 1e-05 | – | – | –
G59U G66U | < 1e-05 | < 1e-05 | – | – | < 1e-05 | – | –
G37A C58A | 1.97e-05 ± 3.4e-06 | – | – | – | – | – | –
C11A U57A | < 1e-05 | – | – | – | – | – | –
U46G U69C | 0.0015 ± 0.00017 | 0.000136 ± 3.6e-05 | 0.00072 ± 0.00016 | 0.00128 ± 0.00028 | 0.00149 ± 0.00027 | 0.000315 ± 7.8e-05 | 539 ± 120
U46G U69A | 0.000212 ± 5.4e-05 | 6.14e-05 ± 1.9e-05 | 0.000212 ± 4.2e-05 | 0.000306 ± 4.6e-05 | 0.000143 ± 3.6e-05 | 9.88e-05 ± 1.7e-05 | –
G29U C58G | 8.52e-05 ± 7.7e-06 | – | 3.31e-05 ± 1.6e-05 | 8.3e-05 ± 1.9e-05 | 7.67e-05 ± 9.9e-06 | – | 752 ± 370
G7U C71G | 1.1e-05 ± 2.1e-06 | – | – | – | – | < 1e-05 | –
C50U U54G | 2.58e-05 ± 7.2e-06 | – | – | 4e-05 ± 1.6e-05 | – | – | –
C50U A53U | 5.88e-05 ± 7.9e-06 | < 1e-05 | – | – | 3.82e-05 ± 8.6e-06 | – | 5390 ± 2000
